Values quoted from earlier work in patent publication US8865021B2, “Compositions of lipids and cationic peptides” (Camurus AB, priority 2003, dated 2014).
Residues, ends and D or L forms follow the SMILES beside them. No end group written: not given here.

Key:
[1] = for Isoelectric pH: Table 2; for isoelectric point: approximate values
[2] = salmon vs human calcitonin

Molecule	Isoelectric pH [1] [pH]	isoelectric point [1]	potency by weight relative to the human hormone [2]
IL-8	9.24		
Mellitin	12.02		
Secretin (HSDGTFTSELSRLRDSARLQRLLQGLV; ends and bridges not checked; UniProt P63298 33-59, looked up) [Secretin (e.g. swine), pancreatic assessment, 27 amino acids, reference compound]	9.45		
CC(C)[C@@H]1NC(=O)[C@H](CCCNC(=N)N)NC(=O)[C@H](Cc2ccccc2)NC(=O)[C@@H](NC(=O)[C@H](Cc2c[nH]c3ccccc23)NC(=O)[C@H](CCCNC(=N)N)NC(=O)[C@@H](N)CCCNC(=N)N)CSSC[C@@H](C(=O)N[C@@H](CCCNC(=N)N)C(N)=O)NC(=O)[C@H](CCCCN)NC(=O)[C@H](CCCNC(=N)N)NC(=O)[C@H](Cc2ccc(O)cc2)NC(=O)[C@@H]2CSSC[C@H](NC1=O)C(=O)N[C@@H](Cc1ccc(O)cc1)C(=O)N[C@@H](CCCCN)C(=O)NCC(=O)N[C@@H](Cc1ccccc1)C(=O)N2 [Polyphemusin II] (HELM PEPTIDE1{R.R.W.C.F.R.V.C.Y.K.G.F.C.Y.R.K.C.R.[am]}$PEPTIDE1,PEPTIDE1,4:R3-17:R3|PEPTIDE1,PEPTIDE1,8:R3-13:R3$$$V2.0)	10.1		
Insulin α	3.79	around 4 pH	
CC[C@H](C)[C@@H]1NC(=O)[C@H](Cc2ccc(O)cc2)NC(=O)[C@@H](N)CSSC[C@@H](C(=O)N2CCC[C@H]2C(=O)N[C@@H](CC(C)C)C(=O)NCC(N)=O)NC(=O)[C@H](CC(N)=O)NC(=O)[C@H](CCC(N)=O)NC1=O [Oxytocin, reference compound]	5.51		
IL-15	4.52		
Tachyplesin I (KWCFRVCYRGICYRRCR; ends and bridges not checked; cysteine pairing not given here; UniProt P14213 24-40, looked up) [antibacterial, antiviral, 17 amino acids]	9.93		
Becaplermin	9.38		
Pneumadin	4.36		
IL-18	5.04		
Follitropin-beta	5.91		
Lepirudin	4.04	around 4 pH	
IL-7	8.72		
OspA	6.72		
Intercellular Adhesion Molecule 1	9.51		
Somatotropin	5.27		
Alteplase	7.61		
IL-13	8.81		
GMCSF	5.21		
Magainin I	10		
octreotide [reference compound]		around 8.0 pH	
Magainin II	10		

Molecule	Isoelectric pH [1] [pH]	isoelectric point [1]	potency by weight relative to the human hormone [2]
Protegrin [Protegrin (e.g. swine)]	10.66		
Polyphemusin I (RRWCFRVCYRGFCYRKCR; ends and bridges not checked; cysteine pairing not given here; UniProt P14215 1-18, looked up) [antibacterial, antifungal, antiviral]	10.33		
IL-5	7.02		
NC(=O)CC[C@@H]1NC(=O)[C@H](Cc2ccccc2)NC(=O)[C@H](Cc2ccc(O)cc2)NC(=O)[C@@H](N)CSSC[C@@H](C(=O)N2CCC[C@H]2C(=O)N[C@@H](CCCN=C(N)N)C(=O)NCC(N)=O)NC(=O)[C@H](CC(N)=O)NC1=O [Vassopresin, reference compound]	8.06	around 8.0 pH	
IL-4	9.26		
IL-1 beta	5.91		
Tuftsin	11		
Somatostatin [Somatostatin (& analogues), reference compound]	9.58		
IL-6	6.21		
Interleukin-1 receptor antagonist	8.51		
IL-10	7.63		
Indolicidin (ILPWKWPWWPWRR; ends and bridges not checked; UniProt P33046 131-143, looked up) [Indolicidin (e.g. bovine), antibacterial, antifungal, anticancer, antiviral, antiparasite]	12.01		
IL-1alpha	5.3		
IL-17	8.62		
Calcitonin (salmon) [reference compound]	8.86	~8.9 pH	around 50 times
IL-19 (protein, UniProt Q9UHD0 25-177, looked up, Melanoma differentiation associated protein-like protein) Interleukin-19: LRRCLISTDMHHIEESFQEIKRAIQAKDTFPNVTILSTLETLQIIKPLDVCCVTKNLLAFYVDRVFKDHQEPNPKILRKISSIANSFLYMQKTLRQCQEQRQCHCRQEATNATRVIHDNYDQLEVHAAAIKSLGELDVFLAWINKNHEVMFSA	7.8		
Interferon-gamma (protein, UniProt P01579 24-161, looked up) Interferon gamma: QDPYVKEAENLKKYFNAGHSDVADNGTLFLGILKNWKEESDRKIMQSQIVSFYFKLFKNFKDDQSIQKSVETIKEDMNVKFFNSNKKKRDDFEKLTNYSVTDLNVQRKAIHELIQVMAELSPAAKTGKRKRSQMLFRG	9.54		
Filgrastim (protein, UniProt P09919 31-207, looked up, N-terminal methionine, non-glycosylated, neutropenia) Granulocyte …: TPLGPASSLPQSFLLKCLEQVRKIQGDGAALQEKLVSECATYKLCHPEELVLLGHSLGIPWAPLSSCPSQALQLAGCLSQLHSGLFLYQGLLQALEGISPELGPTLDTLQLDVADFATTIWQQMEELGMAPALQPTQGAMPAFASAFQRRAGGVLVASHLQSFLEVSYRVLRHLAQP	5.43		
IL-11 (protein, UniProt P20809 22-199, looked up) Interleukin-11: PGPPPGPPRVSPDPRAELDSTVLLTRSLLADTRQLAAQLRDKFPADGDHNLDSLPTLAMSAGALGALQLPGVLTRLRADLLSYLRHVQWLRRAGGSSLKTLEPELGTLQARLDRLLRRLQLLMSRLALPQPPPDPPAPPLAPPSSAWGGIRAAHAILGGLHLTLDWAVRGLLLLKTRL	11.16		
Interferon-alpha 1/13 (protein, UniProt P01562 24-189, looked up) Interferon alpha-1/13: CDLPETHSLDNRRTLMLLAQMSRISPSSCLMDRHDFGFPQEEFDGNQFQKAPAISVLHELIQQIFNLFTTKDSSAAWDEDLLDKFCTELYQQLNDLEACVMQEERVGETPLMNADSILAVKKYFRRITLYLTEKKYSPCAWEVVRAEIMRSLSLSTNLQERLRRKE	5.18		
IL-26 (protein, UniProt Q9NPH9 22-171, looked up) Interleukin-26: KHKQSSFTKSCYPRGTLSQAVDALYIKAAWLKATIPEDRIKNIRLLKKKTKKQFMKNCQFQEQLLSFFMEDVFGQLQLQGCKKIRFVEDFHSLRQKLSHCISCASSAREMKSITRMKRIFYRIGNKGIYKAISELDILLSWIKKLLESSQ	9.99		
IL-24 (protein, UniProt Q13007 52-206, looked up, Melanoma differentiation associated protein 7) Interleukin-24: QEFHFGPCQVKGVVPQKLWEAFWAVKDTMQAQDNITSARLLQQEVLQNVSDAESCYLVHTLLEFYLKTVFKNYHNRTVEVRTLKSFSTLANNFVLIVSQLQPSQENEMFSIRDSAHRRFLLFRRAFKQLDVEAALTKALGEVDILLTWMQKFYKL	8.6		
human Chorionic Gonadotropin-beta (protein, UniProt P0DN86 21-165, looked up, Infertility) Choriogonadotropin subunit …: SKEPLRPRCRPINATLAVEKEGCPVCITVNTTICAGYCPTMTRVLQGVLPALPQVVCNYRDVRFESIRLPGCPRGVNPVVSYAVALSCQCALCRRSTTDCGGPKDHPLTCDDPRFQDSSSSKAPPPSLPSPSRLPGPSDTPILPQ	8.65		
